Assay results: PMC6993865 (Biochemical Journal, 2020)
“And” between values parts separate entries of the source, which are not always exact repeats. Identical values can stand only once.

Molecular target: T1, chymotrypsin-treated recombinant P. falciparum SUB1 (P. falciparum, UniProt Q8I0V0 218-688)
T1 construct: subtilisin-like protease SUB1, P. falciparum, PF3D7_0507500; recombinant, chymotrypsin-treated; also called rPfSUB1; PfSUB1
T1 sequence: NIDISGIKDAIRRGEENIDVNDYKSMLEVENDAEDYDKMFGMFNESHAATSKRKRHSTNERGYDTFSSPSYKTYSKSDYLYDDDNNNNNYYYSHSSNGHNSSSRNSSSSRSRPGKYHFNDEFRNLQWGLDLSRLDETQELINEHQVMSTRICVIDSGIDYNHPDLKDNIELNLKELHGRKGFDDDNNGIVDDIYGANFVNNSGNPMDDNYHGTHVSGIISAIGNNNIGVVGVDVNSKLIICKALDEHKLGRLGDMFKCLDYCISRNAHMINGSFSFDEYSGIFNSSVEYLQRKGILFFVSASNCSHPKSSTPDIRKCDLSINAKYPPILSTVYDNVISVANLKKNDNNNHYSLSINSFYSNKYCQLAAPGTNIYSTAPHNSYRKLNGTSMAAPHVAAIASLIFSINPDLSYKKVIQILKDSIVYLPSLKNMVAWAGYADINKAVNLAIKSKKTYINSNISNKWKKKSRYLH
Test: enzyme inhibition kinetics (fluorogenic peptide substrate); rSUB1-ProM (7.81-250 nM final) added to ongoing hydrolysis of SERA4st1F-6R12 (0.1 µM, well below Km) by rPfSUB1 (0.045 U in 100 µl); 25 mM Tris-HCl pH 8.2, 25 mM CHAPS, 12 mM CaCl2; 21°C; apparent tight-binding inhibition constant, Ki(app) ~ Ki
Conditions: both partners purified

B1: recombinant Plasmodium falciparum SUB1-ProM (SUB1 propeptide mimic), GST-free (natural protein)
chain: QVTPAGTVLNSNSALISRRINRRKMKNCNNNDLLKVLKMETTYNELPAHNLLMSSKNDINKLFDYINKNEELSKLMNSCGTYVYLKYLGVVIFSIKENVQISHLSEFIQYLLNKNVCIEFNQNVML
notes: SUB1-ProM, P. falciparum 3D7, PF3D7_0507400, residues 28-153 of the 153-residue protein (lacks the predicted 27-residue signal peptide); synthetic gene; also called rSUB1-ProM; PfSUB1-ProM; source: E. coli BL21(R2), purified (Glutathione Sepharose 4B, PreScission cleavage, Superdex 200)
With B1 the Ki was 5.67 nM and 5.34 nM.
